Source: patent US20080138847A1, “Bcl-2 family member and BH-3 only proteins for use in development of peptidomimetics” (priority 2004, published 2008)
Where no end group is shown, it is not given here.

Tests used:
CED-9 (residues 68-251) = target: T1, CED-9 (residues 68-251) (Caenorhabditis elegans, UniProt P41958); assay: isothermal titration calorimetry (ITC) of EGL-1 fragments binding to CED-9; design: species or system C. elegans; settings: binding to CED-9 (residues 68-251), read-out: dissociation constant
T1 construct: made in house
T1 sequence (P41958 68-251): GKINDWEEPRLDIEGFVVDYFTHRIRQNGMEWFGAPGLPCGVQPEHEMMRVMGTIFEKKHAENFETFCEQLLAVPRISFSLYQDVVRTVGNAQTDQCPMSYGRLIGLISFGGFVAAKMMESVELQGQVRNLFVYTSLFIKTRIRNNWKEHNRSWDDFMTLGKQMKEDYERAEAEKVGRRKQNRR
From the text: The EGL-1/CED-9 complex adopts a compact, globular fold, resembling a single folding unit. CED-9 comprises 7 α helices, with the central hydrophobic helix α5 surrounded by 6 helices and several surface loops. A 27-amino acid fragment of the EGL-1 protein (residues 47-73) forms a single amphipathic α helix, packing against CED-9 helices α2, α3, α4, α5, and α7 over an extended hydrophobic surface cleft. Residues N- or C-terminal to the EGL-1 helix were disordered in the crystals and thus are not involved in binding to CED-9.

[1] = test system: ced-1 (e1735); egl-1 (n1084 n3082) animals; assay: in vivo cell killing: cell corpses in four-fold transgenic embryos after heat-shock expression of EGL-1 fragments; design: species or system C. elegans; settings: anterior head region of four-fold transgenic embryos; heat-shock promoter expression
Procedure: In this example, the ability of EGL-1 mutants to disrupt the CED-4/CED-9 complex was tested. […] To examine this scenario, constructs were injected into ced-1 (e1735); egl-1 (n1084 n3082) animals that direct expression of various EGL-1 fragments under the control of the C. elegans heat-shock promoters. Cell corpses were scored in the anterior head region of four-fold transgenic embryos after the heat-shock treatment.

[2] = target: T2, CED-9 protein (residues 1-251) (Caenorhabditis elegans, UniProt P41958 1-251); assay: binding test of GST-EGL-1 fragments with CED-9 (1-251)
T2 construct: range 1-251
T2 sequence (looked up): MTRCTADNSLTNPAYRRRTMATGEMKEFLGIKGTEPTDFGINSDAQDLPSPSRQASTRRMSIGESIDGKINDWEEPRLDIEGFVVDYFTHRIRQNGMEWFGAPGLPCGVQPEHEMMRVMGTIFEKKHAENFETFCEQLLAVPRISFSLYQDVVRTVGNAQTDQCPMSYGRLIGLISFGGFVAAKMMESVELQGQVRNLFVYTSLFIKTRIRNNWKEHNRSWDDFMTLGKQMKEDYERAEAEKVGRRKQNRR
Procedure: This example describes the characterization of EGL-1/CED-9 interactions. To determine the mechanism of CED-9 recognition by EGL-1, the EGL-1/CED-9 interaction was characterized. Various fragments of the GST-EGL-1 protein were evaluated for their abilities to interact with the CED-9 protein (residues 1-251). […] In contrast, the C-terminal half (residues 45-87 or 45-91) formed a stable complex with CED-9.

[3] = target: T3, CED-9 (construct not stated) (Caenorhabditis elegans, UniProt P41958 1-251, limits assumed); assay: GST-mediated pull-down
T3 construct: Also stands for the worm's own CED-9 in the in vivo rows
T3 sequence (looked up): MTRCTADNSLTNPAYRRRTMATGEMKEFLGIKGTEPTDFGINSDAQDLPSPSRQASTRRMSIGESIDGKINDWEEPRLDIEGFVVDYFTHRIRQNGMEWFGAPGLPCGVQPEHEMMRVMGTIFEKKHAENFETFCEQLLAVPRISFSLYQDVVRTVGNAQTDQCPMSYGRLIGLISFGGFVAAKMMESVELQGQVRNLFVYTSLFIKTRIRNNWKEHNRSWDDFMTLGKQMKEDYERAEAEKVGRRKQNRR
From the text: This example describes the biochemical and functional analysis of EGL-1/CED-9 interactions. To corroborate the structural analysis, mutations on the interface residues of EGL-1 were examined for their potential to weaken or disrupt its binding to CED-9. Various mutant EGL-1 fragments were purified as fusion proteins with glutathione S-transferase (GST) and their interactions with CED-9 were investigated using a GST-mediated pull-down assay. […] Strikingly, substitution of Gly55 by a negatively charged glutamate residue was not sufficient to abolish interaction with CED-9.

[4] = target: T2, CED-9 protein (residues 1-251); assay: EGL-1 missense mutants tested for interaction with CED-9 (Example 1)

B1: full-length EGL-1 protein: full-length pro-apoptotic BH-3 Only protein EGL-1 of C. elegans (protein, UniProt O61667 1-106, looked up)
chain: MLMLTFASTSSDLLPMSNVFDVQSSVFYNEKNMFYSSSQDFSSCEDSSQFADDSGFFDDSEISSIGYEIGSKLAAMCDDFDAQMMSYSAHASDRSLFHRLLDFFAF
modifications: full-length
notes: full-length pro-apoptotic BH-3 Only protein EGL-1 of C. elegans
For B1, the Kd (CED-9 (residues 68-251)) was 6.7 nM and the “cell killing (cell corpses induced)” value [1] was “induced robust cell killing”.

B2: GST-EGL-1 N-terminal half (residues 1-45) (other, UniProt O61667 16-60, looked up)
chain: {GST}-MSNVFDVQSSVFYNEKNMFYSSSQDFSSCEDSSQFADDSGFFDDS
notes: GST placed at the N-terminus by the printed name 'GST-EGL-1'; also called N-terminal half (residues 1-45) of EGL-1; not shown: glutathione S-transferase (GST) fusion partner
B2: no binding [2].

B3: GST-EGL-1 fragment double mutant (mut2, G55E/F65A) (other, UniProt O61667 60-102, looked up)
chain: SEISSIGYEIESKLAAMCDDADAQMMSYSAHASDRSLFHRLLD
modifications: also: GST fusion in pull-down, placement and linker not given here
notes: GST fusion in the pull-down; also called EGL-1 (G55E/F65A); EGL-1 double mutant; not shown: glutathione S-transferase (GST) fusion partner
B3: no binding [3]; no binding [4].

B4: GST-EGL-1 fragment quadruple mutant (mut4, G55E/L58A/F65A/M69A) (other, UniProt O61667 60-102, looked up)
chain: SEISSIGYEIESKAAAMCDDADAQAMSYSAHASDRSLFHRLLD
modifications: also: GST fusion in pull-down, placement and linker not given here
notes: GST fusion in the pull-down; not shown: glutathione S-transferase (GST) fusion partner
B4: no binding [3].
